± gives the uncertainty stated by the source.
Test: self-splicing fitness, log relative to wild type (ln ratio); higher = more splicing; Tetrahymena group I intron in knt gene, E. coli kanamycin selection, DiMSum; sequences stand for … in CUCUCU…GGAGGGAAAAGUUAUCAGGCAUGCACCUGGUAGCUAGUCUUUAAACCAAUAGAUUGCAUCGGUUUAAAAGGCAAGACCGUCAAAUUGCGGGAAAGGGGUCAACAGCCGUUCAGUACCAAGUCUCAGGGGAAACUUUGAGAUGGCCUUGCAAAGGGUAUGGUAAUAAGCUGACGGACAUGGUCCUAACCACGCAGCCAAGUCCUAAGUCAACAGAUCUUCUGUUGAUAUGGAUGCAGUUCACAGACUAAAUGUCGGUCGGGGAAGAUGUAUUCUUCUCAUAAGAUAUAGUCGGACCUCUCCUUAAUGGGAGCUAGCGGAUGAAGUGAUGCAACACUGGAGCCGCUGGGAACUAAUUUGUAUGCGAAAGUAUAUUGAUUAGUUUUGGAGUACUCGUGGUCG
In short: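 Fitness was computed with DiMSum as the error-weighted combination of replicate fold changes, kanamycin versus none, each normalised to wild type. The library randomised all eight intron nucleotides of the P1ex region, with the intron placed in the knt kanamycin-resistance gene on pET-22b(+) in E. coli BL21(DE3). Six replicate transformations were grown overnight at 37°C or 30°C on LB agar with or without 25 μg/mL kanamycin, plus 100 μg/mL carbenicillin, 50 μM IPTG and 0.2% rhamnose. Pooled colonies were amplicon-sequenced on an Illumina HiSeq 2500.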

AAGAAGCAAUAUUACGUGGG
self-splicing fitness (ln) (30 °C): -2.71 ± 0.13
self-splicing fitness (ln) (37 °C): -2.57 ± 0.14

AAGAAGCAAUAUUACGUGGU
self-splicing fitness (ln) (30 °C): -3.58 ± 0.14
self-splicing fitness (ln) (37 °C): -2.23 ± 0.14

AAGAAGCAAUAUUACGUUAG
self-splicing fitness (ln) (30 °C): -3.65 ± 0.31
self-splicing fitness (ln) (37 °C): -2.77 ± 0.22

AAGCAGCAAUAUUACGACUA
self-splicing fitness (ln) (30 °C): -0.00923 ± 0.1
self-splicing fitness (ln) (37 °C): -0.791 ± 0.13

AAGCAGCAAUAUUACGAGAU
self-splicing fitness (ln) (30 °C): -3.14 ± 0.17
self-splicing fitness (ln) (37 °C): -1.61 ± 0.14

AAGCAGCAAUAUUACGAGGG
self-splicing fitness (ln) (30 °C): -2.45 ± 0.14
self-splicing fitness (ln) (37 °C): -2.28 ± 0.2

AAGCAGCAAUAUUACGAGUA
self-splicing fitness (ln) (30 °C): -2.87 ± 0.19
self-splicing fitness (ln) (37 °C): -2.08 ± 0.14

AAGCAGCAAUAUUACGAUCG
self-splicing fitness (ln) (30 °C): -2.29 ± 0.14
self-splicing fitness (ln) (37 °C): -0.905 ± 0.12

AAGCAGCAAUAUUACGAUUU
self-splicing fitness (ln) (30 °C): 0.17 ± 0.061
self-splicing fitness (ln) (37 °C): 0.619 ± 0.079

AAGCAGCAAUAUUACGCAAU
self-splicing fitness (ln) (30 °C): -1.23 ± 0.085
self-splicing fitness (ln) (37 °C): -1.22 ± 0.091

AAGCAGCAAUAUUACGCAGC
self-splicing fitness (ln) (30 °C): -2.55 ± 0.16
self-splicing fitness (ln) (37 °C): -3.41 ± 0.39

AAGCAGCAAUAUUACGCAGU
self-splicing fitness (ln) (30 °C): -3.36 ± 0.23
self-splicing fitness (ln) (37 °C): -1.52 ± 0.13

AAGCAGCAAUAUUACGCCAG
self-splicing fitness (ln) (30 °C): -2.67 ± 0.36
self-splicing fitness (ln) (37 °C): -1.43 ± 0.41

AAGCAGCAAUAUUACGCGCA
self-splicing fitness (ln) (30 °C): -1.73 ± 0.14
self-splicing fitness (ln) (37 °C): -0.501 ± 0.2

AAGCAGCAAUAUUACGCUAG
self-splicing fitness (ln) (30 °C): -2.56 ± 0.12
self-splicing fitness (ln) (37 °C): -2.84 ± 0.14

AAGCAGCAAUAUUACGGAAA
self-splicing fitness (ln) (30 °C): -2.74 ± 0.12
self-splicing fitness (ln) (37 °C): -2.26 ± 0.14

AAGCAGCAAUAUUACGGCAA
self-splicing fitness (ln) (30 °C): -0.0737 ± 0.06
self-splicing fitness (ln) (37 °C): 0.139 ± 0.081

AAGCAGCAAUAUUACGGCGU
self-splicing fitness (ln) (30 °C): -0.0119 ± 0.067
self-splicing fitness (ln) (37 °C): 0.201 ± 0.079

AAGCAGCAAUAUUACGGGAA
self-splicing fitness (ln) (30 °C): -3.05 ± 0.22
self-splicing fitness (ln) (37 °C): -2.15 ± 0.17

AAGCAGCAAUAUUACGGUAU
self-splicing fitness (ln) (30 °C): -1.55 ± 0.055
self-splicing fitness (ln) (37 °C): -1.13 ± 0.078

AAGCAGCAAUAUUACGUCCC
self-splicing fitness (ln) (30 °C): -1.01 ± 0.15
self-splicing fitness (ln) (37 °C): -0.803 ± 0.2

AAGCAGCAAUAUUACGUCCU
self-splicing fitness (ln) (30 °C): -0.341 ± 0.081
self-splicing fitness (ln) (37 °C): -0.442 ± 0.094

AAGCAGCAAUAUUACGUUUA
self-splicing fitness (ln) (30 °C): -1.53 ± 0.084
self-splicing fitness (ln) (37 °C): -0.691 ± 0.074

AAGGAGCAAUAUUACGAGAU
self-splicing fitness (ln) (37 °C): -2.41 ± 0.24

AAGGAGCAAUAUUACGCCGA
self-splicing fitness (ln) (30 °C): -2.33 ± 0.18
self-splicing fitness (ln) (37 °C): -0.979 ± 0.26

AAGGAGCAAUAUUACGCGCG
self-splicing fitness (ln) (30 °C): -2.19 ± 0.24
self-splicing fitness (ln) (37 °C): -0.975 ± 0.23

AAGGAGCAAUAUUACGCUAG
self-splicing fitness (ln) (30 °C): -2.17 ± 0.2

AAGGAGCAAUAUUACGCUCA
self-splicing fitness (ln) (37 °C): -0.14 ± 0.37

AAGGAGCAAUAUUACGGACG
self-splicing fitness (ln) (37 °C): -0.216 ± 0.26

AAGGAGCAAUAUUACGGAUU
self-splicing fitness (ln) (30 °C): -2.19 ± 0.11
self-splicing fitness (ln) (37 °C): -1.69 ± 0.095

AAGGAGCAAUAUUACGGCCG
self-splicing fitness (ln) (30 °C): -1.99 ± 0.45

AAGGAGCAAUAUUACGGCUA
self-splicing fitness (ln) (30 °C): -1.92 ± 0.12
self-splicing fitness (ln) (37 °C): -0.126 ± 0.13

AAGGAGCAAUAUUACGGGCU
self-splicing fitness (ln) (30 °C): -2.94 ± 0.24
self-splicing fitness (ln) (37 °C): -2.53 ± 0.28

AAGGAGCAAUAUUACGGGGA
self-splicing fitness (ln) (30 °C): -3.91 ± 0.29
self-splicing fitness (ln) (37 °C): -2.25 ± 0.25

AAGGAGCAAUAUUACGUGAA
self-splicing fitness (ln) (30 °C): -2.22 ± 0.34

AAGGAGCAAUAUUACGUGCG
self-splicing fitness (ln) (30 °C): -2.36 ± 0.19
self-splicing fitness (ln) (37 °C): -2.09 ± 0.23

AAGGAGCAAUAUUACGUUGC
self-splicing fitness (ln) (30 °C): -4.58 ± 0.42
self-splicing fitness (ln) (37 °C): -1.71 ± 0.23

AAGGAGCAAUAUUACGUUGU
self-splicing fitness (ln) (30 °C): -2.61 ± 0.15
self-splicing fitness (ln) (37 °C): -2.53 ± 0.21

AAGUAGCAAUAUUACGAACA
self-splicing fitness (ln) (30 °C): -1.1 ± 0.13
self-splicing fitness (ln) (37 °C): -0.811 ± 0.18

AAGUAGCAAUAUUACGACAA
self-splicing fitness (ln) (30 °C): -0.505 ± 0.073
self-splicing fitness (ln) (37 °C): 0.0804 ± 0.084

From the supplement of paper PMC7877785
